Source: patent US20230111102A1 (KAO, published 2023)

Target: T1, HEWL (lysozyme, derived from egg albumen, FUJIFILM Wako Pure Chemical Corporation) (UniProt P00698 19-147)
T1 construct: Immobilised on a CM5 sensor chip by amine coupling (target 150 RU); Species is only implied by 'derived from egg albumen' and the abbreviation HEWL; also called antigen
Experiment: SPR (Biacore T200), HEWL amine-coupled to CM5 chip, 1ZVH at 8.6-700 nM as analyte, 1:1 binding model
Experimental: The antigen-binding activity of the 1ZVH (SEQ ID NO: 38) produced by Dpr9ΔsigF was analyzed by intermolecular interaction measurement using Biacore T200 (GE Healthcare). The sensor chip used was Series S Sensor Chip CM5, and the running buffer used was HBS-EP+. HEWL (lysozyme, derived from egg albumen, FUJIFILM Wako Pure Chemical Corporation) was adjusted to 0.7 g/L with 25 mM Na phosphate pH 6.5 buffer to prepare an antigen solution. The antigen solution diluted 100-fold with an acetic acid aqueous solution (pH 4.0, 4.5, 5.0, or 5.5) to 7 μg/mL was used as substrates. As samples, 1ZVH diluted with the running buffer to 8.6 nM, 26 nM, 78 nM, 230 nM, or 700 nM was used. The following items were set or performed on the control software attached to Biacore T200 using the substrates and the samples, and the binding between the HEWL and the 1ZVH was monitored. Immobilisation pH scouting was performed to investigate the optimum pH for ill- mobilization to a sensor chip. The optimum pH condition was judged to be pH 5.5. The target was set to 150 RU with Aim for immobilized level, and lysozyme was immobilized to Flow path 2 by an amine coupling method. In Flow path 1, Blank Immobilization was performed. The binding between a substrate and a sample was monitored in Flow path 2-1. […] The kinetics were analyzed using the resulting sensor gram. […]

T1 sequence (P00698 19-147 limits assumed): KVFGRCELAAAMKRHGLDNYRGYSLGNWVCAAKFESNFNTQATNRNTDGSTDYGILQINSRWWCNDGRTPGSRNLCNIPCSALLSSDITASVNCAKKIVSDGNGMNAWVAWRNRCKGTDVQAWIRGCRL

B1: 1ZVH (VHH, SEQ ID NO: 38) produced by Bacillus subtilis Dpr9ΔsigF (VHH)
VHH: QVQLVESGGGLVQPGGSLRLSCAASGFTFSNDAMTWVRQAPGKALEWVSSITLLGGGIPYYSDTVKGRFTISRDNTKNMLYLQMNSLKPEDTAVYYCAKGFKSDYPRGQGTQVTVSS
notes: Secreted by Dpr9ΔsigF and purified on Ni-NTA agarose; also called the VHH (1ZVH); purified VHH
- binding result: binds
